Consider 8 substances from article PMC6891087.

The target of data set [1] is unmodified nucleosome core particle (human | Xenopus laevis) (UniProt P04908). Put plainly: SPR; biotinylated NCPs immobilised (~500 RU) on a streptavidin chip, BIAcore T200; analytes 7.8 to 1,000 nM; 8°C; 25 mM Hepes, 250 mM NaCl, 1 mM DTT, 0.05% Tween-20, pH 8; steady-state 1:1 fit.
In the next data set the test system is CPC_LM delta110-188. Put plainly: SPR. To be noted: SPR: 25 mM Hepes pH 8, 250 mM NaCl, 1 mM DTT, 0.05% Tween-20, 8 C; EMSA: 10 mM Tris pH 7.5, 100 mM NaCl, 1 mM MgCl2, 1 mM DTT, 1% glycerol, 0.1 mg/ml BSA, 20 nM.
The test system of the next data set is CPC_LM BOR K198/T199E. Briefly: SPR. As to conditions: SPR: 25 mM Hepes pH 8, 250 mM NaCl, 1 mM DTT, 0.05% Tween-20, 8 C; EMSA: 10 mM Tris pH 7.5, 100 mM NaCl, 1 mM MgCl2, 1 mM DTT, 1% glycerol, 0.1 mg/ml BSA, 20 nM.
Another data set deals with CPC_LM delta189-206. Briefly: SPR. As to conditions: SPR: 25 mM Hepes pH 8, 250 mM NaCl, 1 mM DTT, 0.05% Tween-20, 8 C; EMSA: 10 mM Tris pH 7.5, 100 mM NaCl, 1 mM MgCl2, 1 mM DTT, 1% glycerol, 0.1 mg/ml BSA, 20 nM. A general note: Mobility shift assays separate free from complexed probe on a gel.
Data set [2] concerns CPC_LM (Borealin-Survivin-INCENP1-58). Put plainly: SPR. As to conditions: SPR: 25 mM Hepes pH 8, 250 mM NaCl, 1 mM DTT, 0.05% Tween-20, 8 C, EMSA: 10 mM Tris pH 7.5, 100 mM NaCl, 1 mM MgCl2, 1 mM DTT, 1% glycerol, 0.1 mg/ml BSA, 20 nM.
Another data set relates to CPC_LM BOR 10-end. Put plainly: SPR. To be noted: SPR: 25 mM Hepes pH 8, 250 mM NaCl, 1 mM DTT, 0.05% Tween-20, 8 C; EMSA: 10 mM Tris pH 7.5, 100 mM NaCl, 1 mM MgCl2, 1 mM DTT, 1% glycerol, 0.1 mg/ml BSA, 20 nM.
In another data set the test system is CPC_LM BOR K12/R17/K20E. Briefly: SPR. To be noted: SPR: 25 mM Hepes pH 8, 250 mM NaCl, 1 mM DTT, 0.05% Tween-20, 8 C, EMSA: 10 mM Tris pH 7.5, 100 mM NaCl, 1 mM MgCl2, 1 mM DTT, 1% glycerol, 0.1 mg/ml BSA, 20 nM.
For data set [3], the target named is nucleosome core particle with histone H3 phosphorylated at Thr3 (human | not stated | Xenopus laevis) (UniProt P04908). Put plainly: SPR; biotinylated NCPs immobilised (~500 RU) on a streptavidin chip, BIAcore T200; analytes 7.8 to 1,000 nM; 8°C; 25 mM Hepes, 250 mM NaCl, 1 mM DTT, 0.05% Tween-20, pH 8; steady-state 1:1 fit. On the technique in general: In SPR one partner is held on a chip, and binding of the other changes the refractive index at the surface.

A further data set has as its system Sumo-Borealin110-188. Briefly: SPR. As to conditions: apparent, from normalized response; SPR: 25 mM Hepes pH 8, 250 mM NaCl, 1 mM DTT, 0.05% Tween-20, 8 C; EMSA: 10 mM Tris pH 7.5, 100 mM NaCl, 1 mM MgCl2, 1 mM DTT, 1% glycerol, 0.1 mg/ml BSA, 20 nM.
The next data set has as its system Sumo-Borealin110-206. Put plainly: SPR. To be noted: apparent, from normalized response; SPR: 25 mM Hepes pH 8, 250 mM NaCl, 1 mM DTT, 0.05% Tween-20, 8 C; EMSA: 10 mM Tris pH 7.5, 100 mM NaCl, 1 mM MgCl2, 1 mM DTT, 1% glycerol, 0.1 mg/ml BSA, 20 nM.
For a further data set, the system named is Sumo-Borealin189-206. Briefly: SPR. To be noted: apparent, from normalized response; SPR: 25 mM Hepes pH 8, 250 mM NaCl, 1 mM DTT, 0.05% Tween-20, 8 C; EMSA: 10 mM Tris pH 7.5, 100 mM NaCl, 1 mM MgCl2, 1 mM DTT, 1% glycerol, 0.1 mg/ml BSA, 20 nM.
A further data set deals with CPC_LM BOR delta-loop. Put plainly: SPR. To be noted: apparent, from normalized response; >=20 in review history; SPR: 25 mM Hepes pH 8, 250 mM NaCl, 1 mM DTT, 0.05% Tween-20, 8 C; EMSA: 10 mM Tris pH 7.5, 100 mM NaCl, 1 mM MgCl2, 1 mM DTT, 1% glycerol, 0.1 mg/ml BSA, 20 nM.
Where [4] appears, read: histone H3 phospho-T3 (native chemical ligation; C110A, residue 32 C).

For “CPC_LM containing Borealin 10-end (from UniProt Q53HL2 10-280; O15392 1-142; Q9NQS7 1-58) (complex)”, in data set [1], the Kd turned out to be 860 nM.

As to unmodified NCP (601), the Kd with CPC_LM delta110-188 worked out at 1800 nM; in the data set with CPC_LM BOR K198/T199E, 400 nM; in the data set on CPC_LM delta189-206 it was 260 nM; in data set [2], 295 nM; with CPC_LM BOR 10-end it was 860 nM; with CPC_LM BOR K12/R17/K20E, 528 nM.

In turn, “CPC_LM containing Borealin lacking the C-terminal half of the loop (residues 189-206) (from UniProt Q53HL2 1-280; O15392 1-142; Q9NQS7 1-58) (complex)” came in with a Kd in [1] of 260 nM.

Take “CPC_LM containing Borealin K12/R17/K20E (from UniProt Q53HL2 1-280; O15392 1-142; Q9NQS7 1-58) (complex)”: in data set [1], the Kd worked out at 528 nM.

As for “CPC localization module (Borealin-Survivin-INCENP 1-58) (from UniProt Q53HL2 1-280; O15392 1-142; Q9NQS7 1-58) (complex)”, the Kd in data set [3] was 103 nM. In data set [1], this substance displayed a Kd of 295 nM and a stoichiometry N (CPC LM dimer per NCP) of 1.

On to “CPC_LM containing Borealin lacking the N-terminal half of the loop (residues 110-188) (from UniProt Q53HL2 1-280; O15392 1-142; Q9NQS7 1-58) (complex)”, for which the Kd in data set [1] is 1800 nM.

Consider DNA (SPR ligand; presumably 601), for which the Kd turned out to be 10000 nM in the data set with Sumo-Borealin110-188; 5000 nM in the data set on Sumo-Borealin110-206; 20000 nM in the data set on Sumo-Borealin189-206; 20000 nM in the data set with CPC_LM BOR delta-loop; 5000 nM in [2] (apparent, from normalized response, >=5 in review history).

On to H3T3ph NCP (601), for which the Kd in [2] (setting [4]) amounted to 103 nM; in the data set on CPC_LM BOR K12/R17/K20E (setting [4]), 672 nM.
